B1: PABPN1 (protein, UniProt Q86U42 2-306, looked up)
Polyadenylate-binding protein …: AAAAAAAAAAGAAGGRGSGPGRRRHLVPGAGGEAGEGAPGGAGDYGNGLESEELEPEELLLEPEPEPEPEEEPPRPRAPPGAPGPGPGSGAPGSQEEEEEPGLVEGDPGDGAIEDPELEAIKARVREMEEEAEKLKELQNEVEKQMNMSPPPGNAGPVIMSIEEKMEADARSIYVGNVDYGATAEELEAHFHGCGSVNRVTILCDKFSGHPKGFAYIEFSDKESVRTSLALDESLFRGRQIKVIPKRTNRPGISTTDRGFPRARYRARTTNYNSSRSRFYSGFNSRPRGRVYRGRARATSWYSPY
B2: SYNPO2 (protein, UniProt Q9UMS6 1-1093, looked up)
Synaptopodin-2: MGTGDFICISMTGGAPWGFRLQGGKEQKQPLQVAKIRNQSKASGSGLCEGDEVVSINGNPCADLTYPEVIKLMESITDSLQMLIKRPSSGISEALISENENKNLEHLTHGGYVESTTLQIRPATKTQCTEFFLAPVKTEVPLAENQRSGPDCAGSLKEETGPSYQRAPQMPDSQRGRVAEELILREKVEAVQPGPVVELQLSLSQERHKGASGPLVALPGAEKSKSPDPDPNLSHDRIVHINSIPTNEKADPFLRSSKIIQISSGRELRVIQESEAGDAGLPRVEVILDCSDRQKTEGCRLQAGKECVDSPVEGGQSEAPPSLVSFAVSSEGTEQGEDPRSEKDHSRPHKHRARHARLRRSESLSEKQVKEAKSKCKSIALLLTDAPNPNSKGVLMFKKRRRRARKYTLVSYGTGELEREADEEEEGDKEDTCEVAFLGASESEVDEELLSDVDDNTQVVNFDWDSGLVDIEKKLNRGDKMEMLPDTTGKGALMFAKRRERMDQITAQKEEDKVGGTPSREQDAAQTDGLRTTTSYQRKEEESVRTQSSVSKSYIEVSHGLGHVPQQNGFSGTSETANIQRMVPMNRTAKPFPGSVNQPATPFSPTRNMTSPIADFPAPPPYSAVTPPPDAFSRGVSSPIAGPAQPPPWPQPAPWSQPAFYDSSERIASRDERISVPAKRTGILQEAKRRSTTKPMFTFKEPKVSPNPELLSLLQNSEGKRGTGAGGDSGPEEDYLSLGAEACNFMQSSSAKQKTPPPVAPKPAVKSSSSQPVTPVSPVWSPGVAPTQPPAFPTSNPSKGTVVSSIKIAQPSYPPARPASTLNVAGPFKGPQAAVASQNYTPKPTVSTPTVNAVQPGAVGPSNELPGMSGRGAQLFAKRQSRMEKYVVDSDTVQAHAARAQSPTPSLPASWKYSSNVRAPPPVAYNPIHSPSYPLAALKSQPSAAQPSKMGKKKGKKPLNALDVMKHQPYQLNASLFTFQPPDAKDGLPQKSSVKVNSALAMKQALPPRPVNAASPTNVQASSVYSVPAYTSPPSFFAEASSPVSASPVPVGIPTSPKQESASSSYFVAPRPKFSAKKSGVTIQVWKPSVVEE
B3: PRRC1 (protein, UniProt Q96M27 1-445, looked up)
Protein PRRC1: MMEESGIETTPPGTPPPNPAGLAATAMSSTPVPLAATSSFSSPNVSSMESFPPLAYSTPQPPLPPVRPSAPLPFVPPPAVPSVPPLVTSMPPPVSPSTAAAFGNPPVSHFPPSTSAPNTLLPAPPSGPPISGFSVGSTYDITRGHAGRAPQTPLMPSFSAPSGTGLLPTPITQQASLTSLAQGTGTTSAITFPEEQEDPRITRGQDEASAGGIWGFIKGVAGNPMVKSVLDKTKHSVESMITTLDPGMAPYIKSGGELDIVVTSNKEVKVAAVRDAFQEVFGLAVVVGEAGQSNIAPQPVGYAAGLKGAQERIDSLRRTGVIHEKQTAVSVENFIAELLPDKWFDIGCLVVEDPVHGIHLETFTQATPVPLEFVQQAQSLTPQDYNLRWSGLLVTVGEVLEKSLLNVSRTDWHMAFTGMSRRQMIYSAARAIAGMYKQRLPPRTV
B4: TBXAS1 (protein, UniProt P24557 1-533, looked up)
Thromboxane-A synthase: MEALGFLKLEVNGPMVTVALSVALLALLKWYSTSAFSRLEKLGLRHPKPSPFIGNLTFFRQGFWESQMELRKLYGPLCGYYLGRRMFIVISEPDMIKQVLVENFSNFTNRMASGLEFKSVADSVLFLRDKRWEEVRGALMSAFSPEKLNEMVPLISQACDLLLAHLKRYAESGDAFDIQRCYCNYTTDVVASVAFGTPVDSWQAPEDPFVKHCKRFFEFCIPRPILVLLLSFPSIMVPLARILPNKNRDELNGFFNKLIRNVIALRDQQAAEERRRDFLQMVLDARHSASPMGVQDFDIVRDVFSSTGCKPNPSRQHQPSPMARPLTVDEIVGQAFIFLIAGYEIITNTLSFATYLLATNPDCQEKLLREVDVFKEKHMAPEFCSLEEGLPYLDMVIAETLRMYPPAFRFTREAAQDCEVLGQRIPAGAVLEMAVGALHHDPEHWPSPETFNPERFTAEARQQHRPFTYLPFGAGPRSCLGVRLGLLEVKLTLLHVLHKFRFQACPETQVPLQLESKSALGPKNGVYIKIVSR
B5: FBF1 (protein, UniProt Q8TES7 1-1133, looked up)
Fas-binding factor 1: MAPKTKKGCKVTLPEKPVKLASHTRDTTGVSQMFPSSKARTKSLLGDDVFSTMAGLEEADAEVSGISEADPQALLQAMKDLDGMDADILGLKKSNSAPSKKAAKDPGKGELPNHPKPAGGAIPTKKSLPSPSSSGHQNRRFSSEDLEDPLRGLLSYDEGGITKQPPVTQSKTASDKSPSTVRDQGPSIPLTPGDTPIRKKEELLFDDGDDIMATLGFGDSPKAEKRQIGDQEGPRPARSTLDELLGRGMATKLLARPGTGEHREFKLDKKYQRPQDSEDMWGDEDFTFGAYQPTVVSSEGRQSRRQSVSRFFADSGADPKGEPGSKQSPPMASSPIQPRKGGADWLGLKDEDLDLFPASPTREAHRESSVPVTPSVPPPASQHSTPAGLPPSRAKPPTEGAGSPAKASQASKLRASKEEKEDWLSHALSRKKSQGLAREQHAGTSEGLHLAGTAGHPPSGSQPLTSTQGLEHAAAGGSSGTTARERPCVRPGVSGSPVTQNHAASALPTGSPKRGTAPGDLSATEPATCFPSTQKPTEPSVPVQPLLPESLARSLLPSTEYQKQLLAAQVQLQCSPAELQAELLHSQARLAELEAQVRKLELERAQHELLLGSLQQQHQADLELIESAHRSRIKVLETSYQQREERLRRENEELSARYLSQCQEAEQARAELTAQHQRRLAAIAQEKDQEMERLRELQRASILDMRRDHEEQLQRLKLLKDREVDAATSATSHTRSLNSIIHQMEKFSSSLHELSSRVEASHLTTSQERELGIRQRDEQLRALQERLGQQQRDMEEERSRQQEVIGKMEARLNEQSRLLEQERWRVTAEQSKAESMQRALEEQRKVTAQQMAMERAELERAKSALLEEQKSVMLKCGEERRRLAAEWAEFSAQQKLSKERAEREAERALQVDTQREGTLISLAKQAELKIRASELRAEEKQLAAERAALEQERQELRLEKERINATALRVKLRAEEVESMSKVASEKYEEGERALREAQQVQAEQQARLQAVQQQQERLRKQEQHMHQEHLSLAQQRLQLDRARQDLPSSLVGLFPRAQGPAASSQSALMPPAPTTRWCSQPPTGLDPSPLHLHARLALLRHMAEQDRDFLENEQFFLETLKKGSYNLTSHSA
B6: NUCB1 (protein, UniProt Q02818 27-461, looked up)
Nucleobindin-1: VPLERGAPNKEETPATESPDTGLYYHRYLQEVIDVLETDGHFREKLQAANAEDIKSGKLSRELDFVSHHVRTKLDELKRQEVSRLRMLLKAKMDAEQDPNVQVDHLNLLKQFEHLDPQNQHTFEARDLELLIQTATRDLAQYDAAHHEEFKRYEMLKEHERRRYLESLGEEQRKEAERKLEEQQRRHREHPKVNVPGSQAQLKEVWEELDGLDPNRFNPKTFFILHDINSDGVLDEQELEALFTKELEKVYDPKNEEDDMREMEEERLRMREHVMKNVDTNQDRLVTLEEFLASTQRKEFGDTGEGWETVEMHPAYTEEELRRFEEELAAREAELNAKAQRLSQETEALGRSQGRLEAQKRELQQAVLHMEQRKQQQQQQQGHKAPAAHPEGQLKFHPDTDDVPVPAPAGDQKEVDTSEKKLLERLPEVEVPQHL

Molecular target: T1, HCV ORFs (Gal4-DB fusions) (Hepatitis C virus genotype 1b, UniProt Q9WMX2)
T1 construct: expressed in transfected cells; host or cells: Saccharomyces cerevisiae MAV203 (IMAP1) / AH109 (IMAP2)
Format: binding, HCV genotype 1b, isolate con1
Details: HCV protein CORE as bait; human protein as prey
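Also: yeast two-hybrid screens using HCV genotype 1b proteins fused to Gal4-DB as baits against prey cDNA libraries from human spleen and foetal brain, IMAP1 via transformation and IMAP2 via mating.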

Molecule | IMAP Y2H IMAP2 (number of IST)
B1 | 1

Same assay, conditions: HCV protein NS3 as bait; human protein as prey

Molecule | IMAP Y2H IMAP2 (number of IST)
B2 | 1
B3 | 1
B4 | 1
B5 | 3

Same assay, conditions: HCV protein NS5A as bait; human protein as prey

Molecule | IMAP Y2H IMAP2 (number of IST)
B6 | 2

System: HCV ORFs (Gal4-DB fusions)
Format: binding, HCV genotype 1b, isolate con1
Details: human protein listed by gene symbol; the value names the HCV protein it interacts with

Molecule | Interaction with viral protein
B2 | NS3
B3 | NS3
B4 | NS3
B1 | CORE
B5 | NS3
B6 | NS3 and NS5A
